Assay [1] deals with 3′ phosphate-extended primer. As to the kind of experiment: 3′ phosphate primer detection with antibodies in a microtiter plate (fluorescence). Type of assay: binding. As to conditions: for ratio to no primer: intensity primer / no primer; for fluorescence intensity: 5 min binding, wash at 60° C. As to the method: 3′ phosphate blocked nucleotides were incorporated onto the terminal position of a primer and then reacted with unlabeled or labeled antibodies. After a short reaction time of less than 5 minutes, excess antibodies were washed from the reaction well and bound antibodies detected. In the case of unlabeled antibodies, a secondary fluorescently labeled antibody or nanobody was used to bind to the primary IgG before fluorescence detection. In the case of directly labeled primary antibodies, excess un-bound antibodies were washed away and fluorescence in the reaction well measured with a fluorescence plate reader.
Under some binding and wash conditions some non-specific binding of antibody was occurring on the target. […] The interaction of magnesium with the phosphates of the DNA phosphodiester bonds may be suppressing the ability of the antibodies to react with internal phosphates but still allowing recognition of the terminal phosphate. Specific binding in the presence of magnesium was 10-27 fold higher than without primer.

Assay [2] relates to 3′-phosphate / 2′-phosphate nucleotides. The note with it: cited from earlier work.
Where [3] appears, read: no primer (non-specific binding), 20 mM Mg buffer.
The mark [4] stands for this setting: no primer (non-specific binding), magnesium free buffer.
Where [5] appears, read: primer extended with 3′ phosphate nucleotide, 20 mM Mg buffer.
Where [6] appears, read: primer extended with 3′ phosphate nucleotide, magnesium free buffer.

B1: 18B10: rabbit monoclonal dATP-3P antibody, SEQ ID NO: 39 and 40 (protein)
chain 1: METGLRWLLLVAVLKGVQCQSVEESGGRLVTPGTPLTLTCTVSGIDLSSYAMGWVRQAPGKGLEWIGMISRRGTSYYASWARGRFTISKTSTTVDLKITSPTTEETATYFCARATYDDYTDLNLWGQGTLVTVSSGQPKAPSVFPLAPCCGDTPSSTVTLGCLVKGYLPEPVTVTWNSGTLTNGVRTFPSVRQSSGLYSLSSVVSVTSSSQPVTCNVAHPATNTKVDKTVAPSTCSKPMCPPPELPGGPSVFIFPPKPKDTLMISRTPEVTCVVVDVSQDDPEVQFTWYINNEQVRTARPPLREQQFNSTIRVVSTLPIAHQDWLRGKEFKCKVHNKALPAPIEKTISKARGQPLEPKVYTMGPPREELSSRSVSLTCMINGFYPSDISVEWEKNGKAEDNYKTTPTVLDSDGSYFLYSKLSVPTSEWQRGDVFTCSVMHEALHNHYTQKSISRSPGK
chain 2: MDTRAPTQLLGLLLLWLPGATFAQVLTQTPSSVSAAVGGTVTINCQSSQSVYNNNLLSWYQQKPGQPPKLLIYKTSSLASGVPSRFSGSGSGTQFTLTISGVQCDDAATYYCLGGYYSGSGWYSTFGGGTEVVVKGDPVAPTVLIFPPSADLVATGTVTIVCVANKYFPDVTVTWEVDGTTQTTGIENSKTPQNSADCTYNLSSTLTLTSTQYNSHKEYTCKVTQGTTSVVQSFNRGDC
modifications: dATP-3P
For the molecule B1, the “ratio to no primer” value in assay [1] (20 mM Mg buffer) came to 27.1; in assay [1] (magnesium free buffer), 3.0. For the same molecule, the fluorescence intensity in assay [1] (setting [3]) is listed as 8820; in assay [1] (setting [4]), 88385; in assay [1] (setting [5]) it was 238771; in assay [1] (setting [6]), 265039.

B2: 12D6: rabbit monoclonal dTTP-3P antibody, SEQ ID NO: 51 and 52 (protein)
chain 1: METGLRWLLLVAVLKGVQCQSLEESGGRLVTPGTPLTLTCTVSGIDLSSYTITWVRQAPGKGLEWIGYIYVHDGATYYANWAKGRFTISRTSSTTVDLKMTSLTTEDTATYFCASGGGTTYYRIWGPGTLVTVSSGQPKAPSVFPLAPCCGDTPSSTVTLGCLVKGYLPEPVTVTWNSGTLTNGVRTFPSVRQSSGLYSLSSVVSVTSSSQPVTCNVAHPATNTKVDKTVAPSTCSKPMCPPPELPGGPSVFIFPPKPKDTLMISRTPEVTCVVVDVSQDDPEVQFTWYINNEQVRTARPPLREQQFNSTIRVVSTLPIAHQDWLRGKEFKCKVHNKALPAPIEKTISKARGQPLEPKVYTMGPPREELSSRSVSLTCMINGFYPSDISVEWEKNGKAEDNYKTTPTVLDSDGSYFLYSKLSVPTSEWQRGDVFTCSVMHEALHNHYTQKSISRSPGK
chain 2: MDTRAPTQLLGLLLLWLPGATFAQLLTQTPPSVSAPVGGTVTINCQSSQSVYGHNRLSWYQQKPGQPPKLLIYYTSTLASGVPSRFKGSGSGTQFTLTISDLECDDAATYYCAGGYNGNIYAFGGGTEVVVKGDPVAPTVLIFPPAADQVATGTVTIVCVANKYFPDVTVTWEVDGTTQTTGIENSKTPQNSADCTYNLSSTLTLTSTQYNSHKEYTCKVTQGTTSVVQSFNRGDC
modifications: dTTP-3P
With B2, the figures for the “ratio to no primer” value in assay [1] (20 mM Mg buffer) and in assay [1] (magnesium free buffer) were 20.6 and 1.7, respectively. For the same molecule, the fluorescence intensity in assay [1] (setting [3]) came out at 13278; in assay [1] (setting [4]) it was 206733; in assay [1] (setting [5]) it was 273502; in assay [1] (setting [6]), 345210.

B3: 2F7: rabbit monoclonal dCTP-3P antibody, SEQ ID NO: 43 and 44 (protein)
chain 1: METGLRWLLLVAVLKGVQCQSVEESGGRLVTPGTPLTLTCTVSGFSLSNYAIIWVRQAPGEGLEYIGFISRTGSINYANWAKGRFTISKTSTTVDLKITSPTTEDTATYFCARTDYFANGDIWGPGTLVTVSSGQPKAPSVFPLAPCCGDTPSSTVTLGCLVKGYLPEPVTVTWNSGTLTNGVRTFPSVRQSSGLYSLSSVVSVTSSSQPVTCNVAHPATNTKVDKTVAPSTCSKPMCPPPELPGGPSVFIFPPKPKDTLMISRTPEVTCVVVDVSQDDPEVQFTWYINNEQVRTARPPLREQQFNSTIRVVSTLPIAHQDWLRGKEFKCKVHNKALPAPIEKTISKARGQPLEPKVYTMGPPREELSSRSVSLTCMINGFYPSDISVEWEKNGKAEDNYKTTPTVLDSDGSYFLYSKLSVPTSEWQRGDVFTCSVMHEALHNHYTQKSISRSPGK
chain 2: MDTRVPTQLLGLLLLWLPGARCADVVMTQTPASVSEPVGGTVTIKCQASQSINSWLSWYQQKPGQPPKLLIYAASTLASGVPSRFKGSGSGTQFTLTISDLECADAATYFCQSYDMIVNHGAPFGGGTGVVVSGDPVAPTVLIFPPAADQVATGTVTIVCVANKYFPDVTVTWEVDGTTQTTGIENSKTPQNSADCTYNLSSTLTLTSTQYNSHKEYTCKVTQGTTSVVQSFNRGDC
modifications: dCTP-3P
For the molecule B3, the “ratio to no primer” value in assay [1] (20 mM Mg buffer) is recorded as 16.2; in assay [1] (magnesium free buffer), 8.8. For the same molecule, the fluorescence intensity is 11357 in assay [1] (setting [3]), 19124 in assay [1] (setting [4]), 183669 in assay [1] (setting [5]) and 167623 in assay [1] (setting [6]).

B4: Taq 475: Taq polymerase variant E520G, K540I, L616A (protein, UniProt P19821 1-832, looked up, variant E520G K540I L616A)
DNA polymerase I, thermostable: MRGMLPLFEPKGRVLLVDGHHLAYRTFHALKGLTTSRGEPVQAVYGFAKSLLKALKEDGDAVIVVFDAKAPSFRHEAYGGYKAGRAPTPEDFPRQLALIKELVDLLGLARLEVPGYEADDVLASLAKKAEKEGYEVRILTADKDLYQLLSDRIHVLHPEGYLITPAWLWEKYGLRPDQWADYRALTGDESDNLPGVKGIGEKTARKLLEEWGSLEALLKNLDRLKPAIREKILAHMDDLKLSWDLAKVRTDLPLEVDFAKRREPDRERLRAFLERLEFGSLLHEFGLLESPKALEEAPWPPPEGAFVGFVLSRKEPMWADLLALAAARGGRVHRAPEPYKALRDLKEARGLLAKDLSVLALREGLGLPPGDDPMLLAYLLDPSNTTPEGVARRYGGEWTEEAGERAALSERLFANLWGRLEGEERLLWLYREVERPLSAVLAHMEATGVRLDVAYLRALSLEVAEEIARLEAEVFRLAGHPFNLNSRDQLERVLFDELGLPAIGKTEKTGKRSTSAAVLGALREAHPIVEKILQYRELTILKSTYIDPLPDLIHPRTGRLHTRFNQTATATGRLSSSDPNLQNIPVRTPLGQRIRRAFIAEEGWLLVALDYSQIEARVLAHLSGDENLIRVFQEGRDIHTETASWMFGVPREAVDPLMRRAAKTINFGVLYGMSAHRLSQELAIPYEEAQAFIERYFQSFPKVRAWIEKTLEEGRRRGYVETLFGRRRYVPDLEARVKSVREAAERMAFNMPVQGTAADLMKLAMVKLFPRLEEMGARMLLQVHDELVLEAPKERAEAVARLAKEVMEGVYPLAVPLEVEVGIGEDWLSAKE
For the molecule B4, in assay [2], the “incorporation of 3′-phosphate nucleotides, in words” value is listed as “does not incorporate 3′-phosphate nucleotides”.
